Assay results published in patent publication US20170327561A1, “Anti-Angiogenic Properties of Collagen V Derived Fragments” (Ecole Normale Superieure de Lyon, priority 2014, published 2017).
Entries after “also recorded” stand apart in the source; their conditions may differ.

B1: HEPV: 12 kDa recombinant fragment of the collagen V pro-α1 chain, residues Ile824 to Pro950, SEQ ID NO. 1, binds heparin (protein, listed as Homo sapiens)
chain: IKGDRGEIGPPGPRGEDGPEGPKGRGGPNGDPGPLGPPGEKGKLGVPGLPGYPGRQGPKGSIGFPGFPGANGEKGGRGTPGKPGPRGQRGPTGPRGERGPRGITGKPGPKGNSGGDGPAGPPGERGP
modifications: HEPV
B2: ΔHBS-HEPV: non-functional HEPV mutant, SEQ ID NO. 4, Lys905, Arg909 and Arg912 replaced with alanines; negative control (protein)
chain: IKGDRGEIGPPGPRGEDGPEGPKGRGGPNGDPGPLGPPGEKGKLGVPGLPGYPGRQGPKGSIGFPGFPGANGEKGGRGTPGAPGPAGQAGPTGPRGERGPRGITGKPGPKGNSGGDGPAGPPGERGP
modifications: Synthetic Mutant of HEPV
notes: 4, Lys905, Arg909 and Arg912 replaced with alanines; negative control

Assays:
[1] = test system: human dermal microvascular endothelial cells (HDMEC); test: Quantitative real-time RT-PCR of collagen genes in HEPV-treated endothelial cells; assay type: cell-based; settings: HDMEC treated with HEPV for 4, 12 and 24 hours; relative to untreated controls, normalized to L30
Procedure: Expression of COL14A1 and COL18A1 mRNA in human dermal microvascular endothelial cells (HDMEC) treated with HEPV for 4, 12 and 24 hours, analyzed by real-time PCR. Values are normalized to the house keeping gene L30. Quantification is expressed relative to controls (cells cultivated in the same conditions without HEPV). Values are mean±SEM (n=3).
Total RNA was isolated from 8×10^6 cells by phenol-chloroform-isopropanol extraction (Trizol Reagent, Invitrogen). A reverse transcriptase reaction was performed on 1 μg of RNA using M-MLV reverse transcriptase (Promega). Quantitative PCRs were performed using SYBR Green Supermix (Biorad) and specific primers using a I-Cycler Optical System (Biorad). The following primers were used: […]
L30 was selected as housekeeping gene and used for normalization. Relative transcript abundances were determined as well known by the person skilled in the art. Relative gene expression was determined using the 2^−ΔΔC^T method. Student's t-tests were used to determine statistical significance (n=4).
A transcriptomic analysis has been performed, in order to identify the HEPV-regulated genes. Endothelial HDMEC cells have been treated with HEPV or not, for 4, 12 and 24 hours.

[2] = test system: murine TS/Apc breast cancer cells implanted subcutaneously; test: Antitumor activity, tumor growth by caliper; assay type: in vivo, nude mice; settings: 50 μg peptide every 2 days, versus HEPV-ΔHBS control; from day 20 of treatment
Procedure: (A) Murine Tsa/Pc breast cancer cells implanted subcutaneously are treated from day 5 repeatedly by peritumoral injections of 50 μl PBS containing 50 μg control (HEPV-ΔHBS) of HEPV peptides every 2 days. […] Tumors sections were immunostained using an anti-CD31 antibody that detects blood vessels (B) or an anti-Ki67 antibody that stains proliferating cells (C).
TS/Apc-pGL3 is a cell line derived from the original adenocarcinoma TS/Apc mouse cell line stably transfected with the pGL3-luciferase reporter gene (Promega, Charbonnieres, France). Cells were cultured at 37° C. in a humidified 5% CO2 incubator in RPMI 1640 supplemented with 1% glutamine, 10% fetal bovine serum, 50 units/ml penicillin, 50 μg/ml streptomycin, β-mercaptoethanol (25 μM) and 700 μg/ml Geneticin® (G418 sulphate; Gibco, Paisley, UK).
Twenty female athymic Swiss nude mice, purchased from Janvier (Le Genest Saint Isle, France) at 6-8 weeks of age were used and maintained under specific pathogen-free conditions. Mice received a subcutaneous (s.c.) injection of 10^6 TS/Apc-pGL3 cells suspended in 200 μl of PBS into the right flank usually results in formation of 6-8 mm-diameter tumors after one week. […] Tumor growth was evaluated using calipers.
Tumors have been induced by implantation of murine breast cancer cells (TSA) in nude mice. […] The volume of the tumors is measured with a caliper.

[3] = test system: FGF-2-induced ERK1/2 and Akt phosphorylation in HUVEC; test: Phosphorylation assay (Western blot) after FGF-2 stimulation; assay type: cell-based; settings: peptide 8 μg/mL 24 h, FGF-2 50 ng/mL
Procedure: (§1) HUVEC were seeded at 2.10^5 cells/wells in ECGM2 in 6-well plates. The cells were treated with HEPV or ΔHBS-HEPV (8 μg/mL) during 24 h in serum free medium and then stimulated with FGF-2 or VEGF (50 ng/mL) for 5 or 20 minutes at 37° C. Cells were then washed twice with cold PBS and scraped and lysed at 4° C. in lysis buffer 1% NP-40 (150 mM NaCl, 50 mM Hepes pH 7.4, 5 mM EDTA, 10% glycerol, 1% NP-40, complete protease inhibitor cocktail (Roche), 1 mM Na3VO4). After centrifugation (13 000 g, 15 min, 4° C.), soluble proteins were collected. Protein amount was determined by BCA protein assay (Pierce) and equal amounts of proteins (10 μg) were loaded on SDS-PAGE and transfer on PVDF membrane at 100 V during 1 h. The blots were blocked with 5% BSA in TBS-T buffer (20 αmM Tris-HCl pH 7.4 and 0.05% Tween 20) and incubated with primary antibodies in TBST containing 5% bovine serum albumin, overnight at 4° C. Immunoreactivity was detected by sequential incubation with horseradish peroxidase-conjugated secondary antibodies purchased and ECL detection reagents purchased from Biorad. The antibodies used for phospho-protein detection were the followings: anti-AKT, anti-phospho-Akt (Ser473), anti-ERK1/2 and anti-phospho-ERK1/2 (Thr202/Tyr204, Thr185/Tyr187) (all from Cell Signaling Technology).
(§2) The aim of the experiments presented in FIG. 4 was to determine if, after incubation of endothelial cells with the peptide HEPV, the response to FGF-2 was affected by the presence of this peptide. The measured response to FGF-2 is the level of phosphorylation of proteins ERK 1/2 and Akt, involved in the signalization pathway of FGF-2 and VEGF, as determined with specific antibodies.
Endothelial cells HUVEC have been treated during 24 hours with HEPV or the control peptide ΔHBS-HEPV, and have then been stimulated with FGF-2 (FIG. 4A) or VEGF (50 ng/ml) (FIG. 4B).

[4] = test system: murine TS/Apc breast cancer tumors; test: Immunohistology of tumor sections (anti-CD31, anti-Ki67); assay type: in vivo, nude mice
Procedure: At day 20, 3 mice/group were sacrificed for immunohistology studies. At day 35 days after implantation all remaining tumors were extracted.
Frozen sections (8 μm) from tumors were fixed in acetone for 10 min. Sections were then washed 3×5 min in Tris-buffered saline containing 0.1% Tween 20, and endogenous peroxidases were blocked with 0.1% H2O2 in methanol for 20 min. Sections were then sequentially incubated for 1 h with a rat monoclonal anti-CD31 antibody (MEC13.3;1:500; Pharmingen) or rabbit anti-Ki67 (1:100; AbCAM) and for 1 h with goat anti-rat antibody for CD31 (1:500; Cell-signaling) or goat anti-rabbit for Ki67 (1:200; Dako). […] Sections were counterstained with hematoxylin and all were mounted.
Staining against the endothelial marker CD31 by means of immunohistochemistry was followed by observation under low magnification scope (100×), five field of view of each tumor (5 tumors by condition). Then, vessels quantity were measured in each of these areas utilizing ImageJ software (http://rsbweb.nih.gov/ij). All counts were performed in a blinded manner.
After immunohistochemical staining against Ki67, slides were observed under high magnification scope (200×). Six to nine areas by tumor were photographed. These photographs were analyzed by the plugging ImmunoRatio in ImageJ software (http://rsbweb.nih.gov/ij). The Ki67 index was evaluated in a blinded manner and calculated as Ki67-positive cells divided by all tumor cells in one field.
Mice from each group are sacrificed at day 20 and day 33 to check the formation of novel blood vessels. The account of the blood vessels is realized by observations of the tumors samples.
The proliferation of tumor cells with an antibody anti-Ki67 is also realized on these tumor samples.

[5] = Heparin-Sepharose affinity chromatography (NaCl gradient elution); assay type: binding; settings: linear NaCl gradient 0-500 mM, Tris-HCl pH 7.4
Procedure: Heparin-Sepharose affinity columns (HiTrap Heparin, Amersham) were equilibrated in 50 mM Tris-HCl (pH 7.4). Protein samples were loaded onto a column, and a programmed linear gradient of 0-500 mM NaCl, 1M Tris-HCl (pH 7.4) was applied at a flow rate of 0.5 ml/min, confirmed by continuous conductivity measurement. Fractions (1 ml) were collected, and the elution profile of protein samples was determined by monitoring the absorbance at 214 nm. To accurately compare elution positions of the mutant, its elution with NaCl gradient was achieved versus a standard HEPV elution.
The affinity of both peptides for heparin is compared, on a heparin-sepharose column, determined with the necessary quantity of NaCl to elute the peptides.

[6] = test system: VEGF-induced ERK1/2 phosphorylation in HUVEC; test: Phosphorylation assay (Western blot) after VEGF stimulation; assay type: cell-based; settings: peptide 8 μg/mL 24 h, VEGF 50 ng/ml
Procedure: as §1, with “The blots were blocked with 5% BSA in TBS-T buffer (20 αmM Tris-HCl pH 7.4 and 0.05% Tween 20) and incubated with primary antibodies in TBST containing 5% bovine serum albumin, overnight at 4° C.” left out, “The antibodies used for phospho-protein detection were the followings: anti-AKT, anti-phospho-Akt (Ser473), anti-ERK1/2 and anti-phospho-ERK1/2 (Thr202/Tyr204, Thr185/Tyr187) (all from Cell Signaling Technology).” left out
as §2, with “antibodies. […]” for “antibodies.”

[7] = Organ distribution of the peptide after injection into the blood system; assay type: in vivo; settings: mouse
[8] = test system: FGF-2 induced angiogenesis; test: Hemoglobin measurement in implanted FGF-2 sponges; assay type: in vivo, nude mice; settings: 20 μg peptide first day then every two days, after 7 days of treatment
Text: (B) Formation of new blood vessels in nude mice implanted with a sponge impregnated with FGF-2 or PBS. After repeated treatments with peptides HEPV or HEPV-ΔHBS, the sponges are extracted and the presence of hemoglobin quantified. The presence of hemoglobin reflects the blood vessels content, as documented by the photos.
Disc Cellspon cellulose sponges (thickness 2 mm, diameter 10 mm; Cellomeda, Turku, Finland) were implanted under the skin of the mice. Prior to implantation, the sponges were hydrated with 50 μl of either PBS (negative control) or FGF-2 (200 ng/50 μl; positive angiogenic control) (recombinant FGF-2, Eurobio-AbCys, Les Ulis, France). […]
After implantation of the PBS or FGF-2 treated sponges and treatment with 50 μl containing 50 μg HEP peptides at DO, 2, 3 and 5, the hemoglobin content was measured at D8. […] Each sponge was homogenized in 1 ml of RIPA lysis buffer containing a cocktail of protease inhibitors, centrifuged at 200 g, and the supernatants were quantified. The extent of vascularization of the sponge implants was assessed by measuring the concentration of hemoglobin with Drabkin's reagent (Sigma-Aldrich, Saint-Quentin Fallavier, France). […]
20 μg of HEPV or ΔHBS-HEPV have been injected simultaneously with PBS or FGF-2, at the first day and then every two days. After 7 days of treatment, sponges are taken out and analyzed. […]

| Molecule | Expression of COL4A1 mRNA [1] | Expression of COL18A1 mRNA [1] | Tumor growth (tumor volume) [2] | Phosphorylation of Akt after stimulation with FGF-2 [3] | Phosphorylation of ERK1/2 after stimulation with FGF-2 [3] | Blood vessels density in tumors (anti-CD31), compared to ΔHBS-HEPV-treated mice ([4]; day 20) | Tumor cells proliferation (anti-Ki67) ([4]; day 20) | Blood vessels density in tumors (anti-CD31), compared to ΔHBS-HEPV-treated mice ([4]; day 33) | Tumor cells proliferation (anti-Ki67) ([4]; day 33) | NaCl concentration needed to elute the peptide from heparin-sepharose [5] | Phosphorylation of ERK1/2 after stimulation with VEGF [6] | Toxicity (concluded from absence of liver accumulation) [7] | Accumulation in various organs ([7]; results not shown) | Accumulation into the liver ([7]; results not shown) | Decrease of hemoglobin level in sponges, in comparison with mice treated with ΔHBS-HEPV [8] |
| --- | --- | --- | --- | --- | --- | --- | --- | --- | --- | --- | --- | --- | --- | --- | --- |
| B1 | up-regulated | up-regulated | slows down; also recorded: significantly (p<0.05) slowed down | inhibits | inhibited | significant decrease | significant decrease | less significant | the proliferation strikes back | 0.35 M | present a phosphorylation of ERK1/2 | non-toxic | does not accumulate non-specifically in various organs, except in kidney and bladder | does not accumulate into the liver | 2.5 times |
| B2 |  |  |  |  | inefficient |  |  |  |  | 0.2 M |  |  |  |  |  |
